This series in a line: soluble on expression in E. coli; label from the status in PepcDB or PDB records.
Take “MAVLIETTLGDLIIDLFVKERPRCSLNFLKLCKKKYYNLNQFHSIERNYVAQTGDPTGTGKGGESVYSDMYGEQGRYFEREDLPKMRHTRMGIVSFVNNGDNMLGSQFFITLGENLDYLDDQHTIFGQVTEGLETLEKLNEQLADTNNRPFKDIRISHTIVLDDPFDEDARISFPPRSPSPTYEMLVKTDQIALDEKEDEDEGKTAEEIAEELQQREMAEQAQILEMVGDLKDADEVPPENVLFVCKLNPVTTDEDLEIIFSRFGKINNCEIVRDRRSGDSLQYAFIEFDNAKSCEQAFFKMDNVLIDDRRIHVDFSQSVSQNYKYKPKSQQQEAPKRRQSPQRRPEVKRSHQRSPSPRRRRSPSPKKDKKRDYRREPARRRRSSDNHRDRDRSYRDNNRDRRDNHRDSDRDRRRHDRSPDRRRDRR”: the “soluble on expression in E. coli” value was “not soluble”.

Regarding “MKISIENIGKIKSTSILLDGFTVIAGENDSGKSTVGKIVYSIIQAFSIYPQFRKEKIRRKTSHSLRFFITELRRNFDLTKHDSLRQMMSFSFVNHIMADPDDALYEIRGVLDKLEESYPEKLETLIKLKSRLYGIQREIDSLSESDDIFESITDLMQSEFGGEIDRKQDSRPPSFEINDGETTVISAKFSDGIITDGIYSGGLGLGLGDATYIDGASILQYAHLINLNDSDPRLPFHITDLARKLISPTLVRGGSSNLADIYKGRLVFDETQNSFYFDKGGYRVCLNNIASGIKNIGVLDLLVKKGVICDGSLLVLDEPEINLHPKWQTQLAKIICELHQAGVYILLTTHSPYMIEALHYYANVSGIKSNFYLACKSIANPDDVDFIDLSMNVGAIIEDLAQPLWDIVEDNNEFLEHHHHHH”, the “soluble on expression in E. coli” value is recorded as “soluble”.

On to “MPRRALGWTAEVLKRLHGINYPITKDTLREKLAGMSIRGVPVERVIDEIEVDKFDTPRDVLHYIAEAVHKLEERGEIPTETRKGIRWAAEVLKRIHGEHFPMDKQKLKEKLAGLYWRGVPIEKVIDAMEVEQVESPADLLHQLSIAIKKLEEQGEVA”, for which the “soluble on expression in E. coli” value is “not soluble”.

In the case of “SMEVARAARLAQIFKEICDGIISYKDSSRQALAAPLLNLPPKKKNADYYEKISDPLDLITIEKQILTGYYKTVEAFDADMLKVFRNAEKYYGRKSPVGRDVCRLRKAYYNARHEASAQIDEIVGET”, the “soluble on expression in E. coli” value was “soluble”.

Take “MGSDKIHHHHHHMFNLTKAFLKEVPTNAEVTDFHEVHGGDINKAYSLTDAQGGRYFLKVQPNSVLAFFQHEADGLKLLGQAARVPKVIALGHVGQDQWLLLEYLNATNYGNQYSLGQDLAKIHSITSPNGQFGFDKDFKAGKTSKINTWQSSWYEFFVKQRLNVLRELLINEGKWNDDQNYKKAIEIFQSLMEKHDSRPSLLHGDFWSGNFMFDADSGQPIFIDPDVYYGDPEFDIGITTVFGGFNQDFYVGYQSTKPFQSGAERRLMFYQLYYLMVHAHLFAGSYIQAYRGKLAQIIQQ”: the “soluble on expression in E. coli” value is listed as “not soluble”.

For “MSLDYAQRAVQVDPPRRLTHEMDSWARNFVMLRTDVQGRPINRLEGVYVEHFPDDDSYHVTTPRAIGQQAGNPITIGVSKTAIMEQGGQRIVMNGDAHVHRQPDARNETLDVRSQQLILLPDDDVVFTDLPAQVNKGNSRMNGTGMHYNNKTRQLRVSAAADVEIAGTEGRKRQSTETPANSNQNKPEGHHHHHH”, the “soluble on expression in E. coli” value was “soluble”.

Take “MSLIRMALAAVCALLFSITTMTPFVQASEITISGSTSVARIMDVLAEKYNQQHPETYVAVQGVGSTAGISLLKKGVADIAMTSRYLTESEAQNTLHTFTLAFDGLAIVVNQANPVTNLTREQLYGIYKGQITNWKQVGGNDQKIAVVTREASSGTRYSFESLMGLTKTVKDREVSDVAPTALVVNSNSMMKTLVNHNTQAVGFISIGSVDKSVKAIQFEKADPTSDNIAKHTYQLSRPFLILHYSDNADEQTKEFIAFLKSESAKKLIVEYGYIMPSDVEEGGSHHHHHH”: the “soluble on expression in E. coli” value was “soluble”.

On to “HQITRTVPAKRGTIYDRNGVPIAEDATSYNVYAVIDKKYKSATGKILYVEDAQFNKVAEVFHKYLDMEESYVREQLSQPNLKQVSFGSKGNGITYANMMAIKKELETAEVKGIDFTTSPNRSYPNGQFASSFIGLAQLHENEDGSKSLLGTSGMESSLNSILAGTDGIITYEKDRVGNIVPGTELVSQQTVDGKDVYTTLSSPLQSFMETQMDAFLEKVKGKYMTATLVSAKTGEILATTQRPTFNADTKEGITEDFVWRDILYQSNYEPGSAMKVMTLASSIDNNTFPSGEYFNSSELKIADATTRDWDVNEGLTTGGMMTFLQGFAHSSNVGMSLLEQKMGDATWLDYLKRFKFGVPTRFGLTDEYAGQLPADNIVSIAQSSFGQGISVTQTQMLRAFTAIANDGVMLEPKFISAIYDTNNQSVRKSQKEIVGNPVSKEAASTTRNHMILVGTDPLYGTMYNHYTGKPIITVPGQNVAVKSGTAQIADEKNGGYLVGSTNYIFSAVTMNPAENPDFILYVTVQQPEHYSGIQLGEFATPILERASAMKESLNLQSPAKNLDKVTTESSYAMPSIKDISPGELAEALRRNIVQPIVVGTGTKIKETSVEEGTNLAPNQQVLLLSDKVEEIPDMYGWKKETAETFAKWLDIELEFEGSGSVVQKQDVRTNTAIKNIKKIKLTLGD”, for which the “soluble on expression in E. coli” value is on record as “soluble”.

“MSLRIYFDKILERASPKVERQALTHVERLAMVRRHGDFSLAYSTAVQQKLSYFGDADGYIAFGTKMKHHFALGDPVAAPARRPDFIKRFVETAGDPWFVQISEETARVLAGLGYKVNRLGIDTSLVLSEHDFSGKRNETVRYSERWLLKKGFSFEEDKRTVFLDEIARLSENWRGDRIVKRWEMGFLNRPFYDQLGTDMRRFVLHGPDGELIALLDFDPLFRDGKVIGYTTAFKRKHIDASPHAEIGLTKFAVDRFREEGISVVTLGLSPLVDVTPSGFAESDFWRNTFQRAYASPWVNRRRFNLQGQAAFKRRFHGKEEPVYIAFRKGTYVEMLGLLRLVKAIEGHHHHHH”: the “soluble on expression in E. coli” value was “not soluble”.

Regarding “PQQRRDIRFVWSGDTVGQGFGINPDIGGMRIYEAMRLRLPDFFIHSGDTIYADGPVPAQITAEGGRIWRNITTEAKSKVAETLDEYRGNYRYNLMDENLRRFNAEVPQIWQWDDHEVTNNWSPSKQLDDRYKVKDIQLLSSRARQAYLEYAPLRLQEADKGGRIYRKIPYGPMLDVFVLDMRSYRDGNDANLADKPGPTTAFMGCEQLDWLKRELDASTAQWKVIAADMPIGLGVPDGEVSPGVPRWEAIANGNDGPALGRELEIAELLAYLRAQKVRDCVWLTADVHYCAAHHYQPDLAVFQDFDPFWEFVAGPLNASSFGPNVLDKTFGPELVFQKAPPAQNTSPFAGYQFFGEVNIDGQTGEMSVALRDLDGVSVFERKLQP”, the “soluble on expression in E. coli” value is given as “not soluble”.

On to “MSLTWKHYLSAWQNADLSNEWRRELQRVEEEQERFDGYLTFGTGGMRGKMGIGTKRINLFTIRRVAKGLGDYVVANEGAEMGVAIAFDSRHHSGAFAQETAKVLAAQGINVYLSDSIRPTPALSFCVREKGAFAGVVITASHNPSIYNGFKVYDKNGCQITLGVAQEIAGYLEKITDIFTIPVRELPNPLVTPLGKEMDDAYLNALTAVVSRPDLLADYGNELRICYTPLHGAGKELVMRGLLENGFSETTIIAEQSEPDGDFPTVISPNPEEENSFDLAKKLAKEIQADIILATDPDADRLGVAVLNKQATYQILTGNQLGALLLNYILEAKTPVTGADTMINTIVTGDLGGKIAYDFGINHIQTLTGFKFIGEKIAEMEGTEKNFLFGYEESYGYLIAPFVRDKDAVQAALLTAEMALFYKKEGTTLLGKLTNLFEKFGYHKEYLHTITLDDSDGITKMIQVIDALRKEPIFMPEITVVEDFLTSKRTNFVTMEVTNIELPKENVLKFYLMDSSWFAIRPSGTEPKCKIYFQTSGETEEIATKAMNELRKRVLAVWDEGHHHHHH”, for which the “soluble on expression in E. coli” value is “soluble”.

For the sequence “MSLKRAIIIGATSGIGKEVAQRLLSEGWQIGIAGRRQSALEEFRQIAPEQIKIQSLDVTQEYSAGKLDALIHQLGGMDLFLLSSGIGFQNMELNMEIELNTARTNVEGFTRMVDTAFSYFRNNGGGHLAVISSIAGTKGLGVAPAYSATKRFQNTYIDALEQLSHLQKLDIHFTDIRPGFVATDLLNDGKHYPMLMKTDQVGRDIVRALHRKQRVAIIDGRYRILVFFWRMIPRWIWKRLPVKTEGHHHHHH”, the “soluble on expression in E. coli” value is recorded as “soluble”.

The record behind these values is the DeepSol protein solubility set.
